Biological target: the molecule itself
Assay: SEC; Superdex 75 HR 30/10; Utr-SR1 in 20 mM Tris pH 8.0, 50 mM NaCl; Dys-SR1 in PBS; no DTT added

B1: Dystrophin N-terminal (repeat 1) spectrin repeat (domain or fragment, human, UniProt P11532 338-456, looked up)
chain: EVNLDRYQTALEEVLSWLLSAEDTLQAQGEISNDVEVVKDQFHTHEGYMMDLTAHQGRVGNILQLGSKLIGTGKLSEDEETEVQEQMNLLNSRWECLRVASMEKQSNLHRVLMDLQNQK
notes: dystrophin, human, residues 338-456 (first spectrin repeat); Without a reducing agent part of the protein is a dimer linked by a disulphide bond between C433 of each molecule; The model in PDB 3UUN holds residues 338-453 (monomer A) and 339-452 (monomer B); Tag and cleavage are told only as 'prepared in an equivalent manner' to Utr-SR1; also called Dys-SR1; source: E. coli BL21(DE3), purified in …
B1: binds.

Source: PMC3401230, “The Crystal Structures of Dystrophin and Utrophin Spectrin Repeats: Implications for Domain Boundaries” (PLoS ONE, 2012)
